Laboratory results taken from US20260167699A1 (Chugai, published 2026).
Where a chain is given by its changes, count along the chain named. Each block holds one binder with its values, some of them ahead of it.

Experiments:
Test in all cases: SPR, vs GpH7-A5/GpH7-B3/GpL16-k0 =100
[1] = target: T1, FcγRIIa(H) extracellular domain, His-tagged (human, UniProt P12318 34-217)
T1 construct: extracellular domain; also called 2aH
T1 sequence: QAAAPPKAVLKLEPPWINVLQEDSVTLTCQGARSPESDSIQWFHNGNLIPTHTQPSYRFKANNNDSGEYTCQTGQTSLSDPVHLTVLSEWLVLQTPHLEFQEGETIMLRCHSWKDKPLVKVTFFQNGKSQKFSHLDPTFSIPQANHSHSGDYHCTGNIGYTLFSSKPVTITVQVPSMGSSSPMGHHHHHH

[2] = target: T2, FcγRIIa(R) extracellular domain, His-tagged (human, UniProt P12318 34-217)
T2 construct: extracellular domain; also called 2aR
T2 sequence: T1 sequence with H134R

[3] = target: T3, FcγRIa extracellular domain, His-tagged (human, UniProt P12314 16-292)
T3 construct: extracellular domain; also called 1a
T3 sequence (P12314 other isoform, or with tags, fused parts or gaps): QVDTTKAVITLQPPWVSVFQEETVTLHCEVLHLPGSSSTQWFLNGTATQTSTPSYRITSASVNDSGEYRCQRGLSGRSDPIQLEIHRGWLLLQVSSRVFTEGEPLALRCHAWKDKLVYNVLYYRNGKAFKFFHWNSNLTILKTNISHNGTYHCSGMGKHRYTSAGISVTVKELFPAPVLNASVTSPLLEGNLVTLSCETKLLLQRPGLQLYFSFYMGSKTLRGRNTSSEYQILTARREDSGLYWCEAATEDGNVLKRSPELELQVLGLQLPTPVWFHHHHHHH

[4] = target: T4, FcγRIIIa extracellular domain, His-tagged (human, UniProt P08637 17-208)
T4 construct: extracellular domain; also called 3a
T4 sequence (P08637 other isoform, or with tags, fused parts or gaps): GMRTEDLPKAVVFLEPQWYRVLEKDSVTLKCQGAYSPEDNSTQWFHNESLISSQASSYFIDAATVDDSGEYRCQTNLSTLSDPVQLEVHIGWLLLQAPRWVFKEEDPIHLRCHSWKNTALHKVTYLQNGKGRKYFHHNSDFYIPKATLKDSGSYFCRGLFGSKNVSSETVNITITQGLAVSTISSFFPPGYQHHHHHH

[5] = target: T5, FcγRIIb extracellular domain, His-tagged (human, UniProt P31994 43-217)
T5 construct: extracellular domain; also called 2b
T5 sequence: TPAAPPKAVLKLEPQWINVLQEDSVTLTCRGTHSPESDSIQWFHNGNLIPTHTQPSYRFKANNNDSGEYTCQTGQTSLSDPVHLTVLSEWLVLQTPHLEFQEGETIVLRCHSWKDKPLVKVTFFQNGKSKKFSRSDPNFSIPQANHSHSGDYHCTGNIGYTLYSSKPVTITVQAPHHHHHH

B1: GpH7-A5/GpH7-B3 variant P238_15Y/GpL16-k0 (antibody, human IgG1, kappa)
heavy 1: not shown
heavy 2: not shown
light: DIVMTQSPLSLPVTPGEPASISCQASESLVHSNRNTYLHWYLQKPGQSPQLLIYKVSNRFSGVPDRFSGSGSGTDFTLKISRVEAEDVGVYYCSQNTHVPPTFGQGTKVEIERTVAAPSVFIFPPSDEQLKSGTASVVCLLNNFYPREAKVQWKVDNALQSGNSQESVTEQDSKDSTYSLSSTLTLSKADYEKHKVYACEVTHQGLSSPVTKSFNRGEC
He/Con 2aH [1]: 57.8 % of control
He/Con 2aR [2]: 147 % of control
He/Con 1a [3]: 104 % of control
He/Con 3a [4]: 61 % of control
He/Con 2b [5]: 221 % of control

B2: GpH7-A5/GpH7-B3 variant P271_11K/GpL16-k0 (antibody, human IgG1, kappa)
heavy 1: not shown
heavy 2: not shown
light: B1 light
He/Con 2aH [1]: 100 % of control
He/Con 2aR [2]: 97.3 % of control
He/Con 1a [3]: 101 % of control
He/Con 3a [4]: 92.5 % of control
He/Con 2b [5]: 101 % of control

B4: GpH7-A5/GpH7-B3 variant P271_13S/GpL16-k0 (antibody, human IgG1, kappa)
heavy 1: not shown
heavy 2: not shown
light: B1 light
He/Con 2aH [1]: 83.3 % of control
He/Con 2aR [2]: 93.5 % of control
He/Con 1a [3]: 101 % of control
He/Con 3a [4]: 79.8 % of control
He/Con 2b [5]: 98.2 % of control

B5: GpH7-A5/GpH7-B3 variant P271_12R/GpL16-k0 (antibody, human IgG1, kappa)
heavy 1: not shown
heavy 2: not shown
light: B1 light
He/Con 2aH [1]: 100 % of control
He/Con 2aR [2]: 95.8 % of control
He/Con 1a [3]: 101 % of control
He/Con 3a [4]: 87.6 % of control
He/Con 2b [5]: 96.9 % of control

B8: GpH7-A5/GpH7-B3 variant P271_10E/GpL16-k0 (antibody, human IgG1, kappa)
heavy 1: not shown
heavy 2: not shown
light: B1 light
He/Con 2aH [1]: 72.4 % of control
He/Con 2aR [2]: 102 % of control
He/Con 1a [3]: 101 % of control
He/Con 3a [4]: 98.2 % of control
He/Con 2b [5]: 122 % of control

B9: GpH7-A5/GpH7-B3 variant P238_19Q/GpL16-k0 (antibody, human IgG1, kappa)
heavy 1: not shown
heavy 2: not shown
light: B1 light
He/Con 2aH [1]: 54.5 % of control
He/Con 2aR [2]: 97.8 % of control
He/Con 1a [3]: 101 % of control
He/Con 3a [4]: 52.7 % of control
He/Con 2b [5]: 112 % of control

B11: GpH7-A5/GpH7-B3 variant P271_14T/GpL16-k0 (antibody, human IgG1, kappa)
heavy 1: not shown
heavy 2: not shown
light: B1 light
He/Con 2aH [1]: 69.8 % of control
He/Con 2aR [2]: 94.7 % of control
He/Con 1a [3]: 101 % of control
He/Con 3a [4]: 59.2 % of control
He/Con 2b [5]: 107 % of control

B12: GpH7-A5/GpH7-B3 variant P271_03V/GpL16-k0 (antibody, human IgG1, kappa)
heavy 1: not shown
heavy 2: not shown
light: B1 light
He/Con 2aH [1]: 85.4 % of control
He/Con 2aR [2]: 85.8 % of control
He/Con 1a [3]: 101 % of control
He/Con 3a [4]: 73.5 % of control
He/Con 2b [5]: 83.8 % of control

B14: GpH7-A5/GpH7-B3 variant P271_15Y/GpL16-k0 (antibody, human IgG1, kappa)
heavy 1: not shown
heavy 2: not shown
light: B1 light
He/Con 2aH [1]: 74 % of control
He/Con 2aR [2]: 70 % of control
He/Con 1a [3]: 101 % of control
He/Con 3a [4]: 62.7 % of control
He/Con 2b [5]: 58.6 % of control

Further lines, results first:

He/Con 2aH [1]: 88.7 % of control
He/Con 2aR [2]: 76.6 % of control
He/Con 1a [3]: 101 % of control
He/Con 3a [4]: 77.8 % of control
He/Con 2b [5]: 65.1 % of control
B3: GpH7-A5/GpH7-B3 variant P271_20W/GpL16-k0 (antibody, human IgG1, kappa)
heavy 1: not shown
heavy 2: not shown
light: B1 light

He/Con 2aH [1]: 62.6 % of control
He/Con 2aR [2]: 68.7 % of control
He/Con 1a [3]: 98.5 % of control
He/Con 3a [4]: 85.6 % of control
He/Con 2b [5]: 68.1 % of control
B6: GpH7-A5/GpH7-B3 variant Q295_09D/GpL16-k0 (antibody, human IgG1, kappa)
heavy 1: not shown
heavy 2: not shown
light: B1 light

He/Con 2aH [1]: 128 % of control
He/Con 2aR [2]: 118 % of control
He/Con 1a [3]: 103 % of control
He/Con 3a [4]: 120 % of control
He/Con 2b [5]: 134 % of control
B7: GpH7-A5/GpH7-B3 variant Q295_08L/GpL16-k0 (antibody, human IgG1, kappa)
heavy 1: not shown
heavy 2: not shown
light: B1 light

He/Con 2aH [1]: 118 % of control
He/Con 2aR [2]: 86.6 % of control
He/Con 1a [3]: 102 % of control
He/Con 3a [4]: 74.4 % of control
He/Con 2b [5]: 75.7 % of control
B10: GpH7-A5/GpH7-B3 variant Q295_05P/GpL16-k0 (antibody, human IgG1, kappa)
heavy 1: not shown
heavy 2: not shown
light: B1 light

He/Con 2aH [1]: 106 % of control
He/Con 2aR [2]: 90.3 % of control
He/Con 1a [3]: 102 % of control
He/Con 3a [4]: 86.2 % of control
He/Con 2b [5]: 84.9 % of control
B13: GpH7-A5/GpH7-B3 variant Q295_03V/GpL16-k0 (antibody, human IgG1, kappa)
heavy 1: not shown
heavy 2: not shown
light: B1 light

He/Con 2aH [1]: 111 % of control
He/Con 2aR [2]: 101 % of control
He/Con 1a [3]: 102 % of control
He/Con 3a [4]: 100 % of control
He/Con 2b [5]: 101 % of control
B15: GpH7-A5/GpH7-B3 variant Q295_06M/GpL16-k0 (antibody, human IgG1, kappa)
heavy 1: not shown
heavy 2: not shown
light: B1 light
